Patent US20210322404A1, “FGFR REGULATION FOR THE TREATMENT OF VIRAL INFECTIONS” (ETH ZURICH, priority 2016, published 2021)

What was measured:
[1] = test system: ZIKV; assay: ZIKV infection of HaCaT cells; assay type: cell-based, Zika Virus
Procedure: FIGS. 6B and C relate to HaCaT cells that were serum starved overnight and then infected with the ZIKV strains Uganda (strain 976) (MOI=0.1) or French-Polynesia (PF13/251013-18) (MOI˜20). 2h after infection cells were treated with 20 ng/ml FGF7 or left untreated (CTRL). Culture medium+/−FGF7 was changed every day. 48h post infection cells were analyzed by immunofluorescence using a Flavivirus group-specific antibody (4G2) detecting the ZIKV envelope protein (ZIKV-Env) (B). Magnification bar in (B): 40 μm. Alternatively, cells were analyzed for ZIKV mRNA levels by qRT-PCR relative to RPL27 (C). Mean expression levels in vehicle-treated cells were set to 1. Representative out of four independent experiments are shown.
HaCaT cells were seeded on a 4-well tissue chamber on a PCA slide (5×10^4/chamber). After overnight serum starvation, they were infected with the ZIKV strains Uganda (strain 976) (MOI=0.1) or French-Polynesia (PF13/251013-18) (MOI˜20). 2h post infection cells were treated with FGF7 or left untreated. Culture media+/−FGF7 was changed every day. 48 hours post-infection cells were either analyzed by immunofluorescence using a Flavivirus group-specific antibody (4G2) detecting the ZIKV envelope protein (ZIKV-Env) or harvested and analyzed for ZIKV expression levels by qRT-PCR relative to human RPL27 (ZIKV primers: 5′-[…] -3′, SEQ ID NO: 49; 5′-[…] -3′, SEQ ID NO: 50). To investigate the effect of ZIKV and FGF7 on ISG expression, HaCaT cells were seeded in 6-well plates. After overnight serum starvation, confluent cells were infected with the ZIKV strain French-Polynesia (PF13/251013-18) (MOI˜20) in the presence or absence of FGF7 (20 ng/ml). 72 h post-infection cells were harvested and analyzed for OAS1 and MxA by qRT-PCR relative to RPL27.

[2] = test system: interferon-stimulated genes (ISGs); assay: ISG expression in mouse keratinocytes treated with FGF7 and/or IFNα (qRT-PCR); assay type: cell-based
[3] = test system: HSV-1; assay: HSV-1 infection of HaCaT cells, virus load; assay type: cell-based, Herpes Simplex Virus type 1
Procedure: FIGS. 5A-C relate to HaCaT cells infected with HSV-1 (MOI=0.5) after overnight serum starvation, either alone or in combination with FGF7 (10 ng/ml) or IFNα (1000U/ml). 24 h after infection, virus load was determined by qPCR for the HSV-1 Glycoprotein B (Glyc-B) gene relative to the human β-actin gene (A) or visualized by immunofluorescence staining for HSV-1 Glycoprotein D (Glyc-D) (red) (B). The Glyc-B/β-actin gene ratio in HSV-1 infected cells was set to 1. Cell nuclei were stained with DAPI (blue). Magnification bar: 200 μm. (C) Transmission microscopy images of HaCaT cells taken 48 h after HSV-1 infection. […] Magnification bar: 80 μm. Representative data out of four experiments are shown.
FIGS. 5 D & E relate to overnight-starved HaCaT cells infected with HSV-1 (MOI=0.5) alone or in combination with IFNα (1000 U/ml), IFNα and FGF7 (10 ng/ml) (D); or FGF7 at different concentrations (E).
FIG. 5F pertains to serum-starved HaCaT cells that were infected with HSV-1 (MOI 0.5-1). After 4 h, infected cells were washed with PBS, followed by addition of fresh serum-free culture medium containing FGF7 (10 ng/ml).
FIGS. 5G-K pertains to overnight-starved HaCaT cells infected with HSV-1 (MOI=0.5) alone or in combination with FGF7, which was added at the indicated time points. 12 h after infection, cells were analyzed for Glyc-B DNA (H) and, RSAD2 and IRF7 mRNA levels by qPCR/qRT-PCR (I) or for ISG protein levels by western blotting (K). Vinculin was used as loading control.
FIGS. 7A-C relate to serum-starved HaCaT cells that were infected with HSV-1 in the presence or absence of FGF7 (10 ng/ml), NSC23766 (20 μM), the FGFR kinase inhibitors AZD4547 (1 μM) and BGJ398 (3.5 μM) (A) or IFNα (1000 U/ml) (B). […] Magnification bar: 500 μm. The Glyc-D positive area was quantified using digital pixel measurements (C, right). A representative out of two experiments is shown.
Frozen sections from mouse back skin were fixed with cold methanol, and unspecific binding sites were blocked with PBS/2% bovine serum albumin (BSA) (Sigma)/1% fish skin gelatin (Sigma)/0.05% Triton X-100 (Carl Roth GmbH, Karlsruhe, Germany) for 2 h at room temperature. Samples were then incubated overnight at 4° C. with anti-IRF7 or anti-K14 antibodies diluted in the same buffer. After three washes with 1×PBS/0.1% Tween 20 (Carl Roth GmbH), slides were incubated at room temperature (RT) for 4 h with secondary antibodies (AF555-conjugated anti-rabbit IgG and AF488-conjugated anti-mouse IgG) and DAPI (4′,6-diamidino-2-phenylindole dihydrochloride) (Sigma) as counter-stain, washed again and mounted with Mowiol (Hoechst, Frankfurt, Germany). Stained sections were photographed with a Leica SP1-2 confocal microscope equipped with a 63×0.6-1.32 NA (Iris) PL Apo Oil objective. For data acquisition the Leica Confocal Software (Leica, Wetzlar, Germany) was used. For immunofluorescence staining of cultured cells, they were washed with PBS and either fixed for 5 min with cold methanol for staining with antibodies against ZO-1 and IRF7, or with 4% paraformaldehyde (PFA) (Sigma) for 20 min at RT for Glyc-D staining. PFA-fixed cells were then incubated for 10 min with 0.5% Triton X-100 in PBS. After 1 h blocking in PBS containing 2% BSA, cells were stained with the primary antibodies for 1 h in the same blocking buffer. After three washes with PBS, cells were incubated with the secondary antibodies (AF555-conjugated anti-mouse IgG, AF488-conjugated anti-mouse IgG and AF555-conjugated anti-rabbit IgG) and DAPI.

B1: FGF7: recombinant human FGF7, the classical ligand of FGFR2b (protein, UniProt P21781 32-194, looked up)
Fibroblast growth factor 7: CNDMTPEQMATNVNCSSPERHTRSYDYMEGGDIRVRRLFCRTQWYLRIDKRGKVKGTQEMKNNYNIMEIRTVAVGIVAIKGVESEFYLAMNKEGKLYAKKECNEDCNFKELILENHYNTYASAKWTHNGGEMFVALNQKGIPVRGKKTKKEQKTAHFLPMAIT
ZIKV gene expression (qRT-PCR relative to RPL27) ([1]; FGF7 20 ng/ml added 2 h after infection): efficient when added 2 h after the infection
number of cells expressing the ZIKV envelope protein ([1]; FGF7 20 ng/ml, 48 h post infection): increased the number of cells expressing the ZIKV envelope protein
increase of MxA and OAS1 expression during ZIKV infection ([1]; ZIKV French-Polynesia, FGF7 20 ng/ml, 72 h): strongly suppressed
expression of Ifnα subtypes, Ifnβ and Il28a (Ifnλ2) ([2]; mouse keratinocytes, FGF7 10 ng/ml): not reduced
increase in ISG expression in response to IFNα ([2]; mouse primary keratinocytes, FGF7 10 ng/ml and IFNα 1000 U/ml, 6 h): reduced
ISG expression (qRT-PCR relative to Rps29) ([2]; primary and immortalized keratinocytes from wild-type mice, FGF7 10 ng/ml, 3 or 6 h): strongly suppressed
expression of ISGs in IFNAR-deficient cells ([2]; primary keratinocytes from Ifnar KO mice, FGF7 6 h): still suppressed expression of ISGs
viral DNA, FGF7 given after removal of the virus ([3]; HaCaT infected 4 h, virus removed, FGF7 10 ng/ml for 8 h): A strong increase in viral DNA
appearance of HSV-1 infected cells (transmission microscopy) ([3]; HaCaT, 48 h after infection): completely detached
IFNα-mediated reduction in viral DNA ([3]; HaCaT, HSV-1, IFNα 1000 U/ml and FGF7 10 ng/ml): partially reverted
levels of viral DNA at different FGF7 concentrations ([3]; HaCaT, HSV-1 MOI=0.5): induced the levels of viral DNA in a dose-dependent manner
HSV-1 glycoprotein D (Glyc-D) immunofluorescence staining ([3]; HaCaT, HSV-1 MOI=0.5, FGF7 10 ng/ml): increased strongly
viral glycoprotein B (Glyc-B) DNA ([3]; HaCaT, HSV-1 MOI=0.5, FGF7 10 ng/ml or IFNα 1000 U/ml): A strong increase in viral DNA
HSV-1 replication, FGF7 present only for 4h ([3]; HaCaT, analysis 12 h after infection): no longer promoted
HSV-1 replication, FGF7 added with the virus or 2h or 4h post infection ([3]; HaCaT, exposed to FGF7 for 12h, 10h or 8h): strongly promoted HSV-1 replication
